Source: patent publication US20130012432A1, “Peptides for Treatment of Obesity” (Novo Nordisk A/S, priority 2010, published 2013)

Biological target: human GLP-1 receptor (human) (UniProt P43220)
Experiment: cell-based or functional assay

human GLP-1 receptor (human), sequence (P43220 24-463): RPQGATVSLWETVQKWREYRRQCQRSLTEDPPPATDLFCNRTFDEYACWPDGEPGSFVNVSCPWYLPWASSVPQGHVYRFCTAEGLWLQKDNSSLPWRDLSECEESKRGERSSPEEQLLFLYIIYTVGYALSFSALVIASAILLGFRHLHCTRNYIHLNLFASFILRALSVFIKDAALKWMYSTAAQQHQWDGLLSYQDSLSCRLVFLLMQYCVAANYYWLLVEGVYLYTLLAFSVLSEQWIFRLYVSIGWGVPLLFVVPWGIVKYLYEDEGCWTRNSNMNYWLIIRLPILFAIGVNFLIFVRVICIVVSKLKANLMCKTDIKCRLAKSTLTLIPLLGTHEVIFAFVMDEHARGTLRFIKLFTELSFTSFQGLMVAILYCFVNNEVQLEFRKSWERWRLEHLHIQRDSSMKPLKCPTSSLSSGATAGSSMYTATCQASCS

## N-epsilon37-[2-(2-{2-[2-(2-{2-[(S)-4-Carboxy-4-({trans-4-[(19-carboxynonadecanoylamino)methyl]cyclohexanecarbonyl}amino)butyrylamino]ethoxy}ethoxy)acetylamino]ethoxy}ethoxy)acetyl][DesaminoHis7,Glu22,Arg26,Arg34,Lys37]GLP-1-(7-37) (peptide)
  EC50 of cAMP formation (AlphaScreen, Assay XI), relative to that of compound G1 (times the EC50 of compound G1): 5
